Data as given in patent US12679878B2, “CRF2 receptor agonists and their use in therapy” (SANOFI, priority 2020, dated 2026).
Starred links: 1 amine or outer side, 2 acyl side, 3 side chain; linkers in the order of their positions; H or OH if unused. Non-standard residues stand in square brackets, D forms with d. Groups on a side chain read outwards from the residue. No end group written: not given here. *: point of attachment. C18 diacid = O=C(O)CCCCCCCCCCCCCCCCC(=O)*; γGlu = O=C(O)[C@H](CCC(=O)[*:2])N[*:1]; AEEA = NCCOCCOCC(=O)O; Aib = CC(C)(N)C(=O)O

B1: SEQ ID NO: 90 (peptide)
peptide: IVLSLDVPIKLK([AEEA-AEEA-γGlu-C18 diacid])QILLKQERQKKQREKAKTNVQILAQV-NH2
modifications: N-terminus assumed
SMILES: CC[C@H](C)[C@H](N)C(=O)N[C@H](C(=O)N[C@@H](CC(C)C)C(=O)N[C@@H](CO)C(=O)N[C@@H](CC(C)C)C(=O)N[C@@H](CC(=O)O)C(=O)N[C@H](C(=O)N1CCC[C@H]1C(=O)N[C@H](C(=O)N[C@@H](CCCCN)C(=O)N[C@@H](CC(C)C)C(=O)N[C@@H](CCCCNC(=O)COCCOCCNC(=O)COCCOCCNC(=O)CC[C@H](NC(=O)CCCCCCCCCCCCCCCCC(=O)O)C(=O)O)C(=O)N[C@@H](CCC(N)=O)C(=O)N[C@H](C(=O)N[C@@H](CC(C)C)C(=O)N[C@@H](CC(C)C)C(=O)N[C@@H](CCCCN)C(=O)N[C@@H](CCC(N)=O)C(=O)N[C@@H](CCC(=O)O)C(=O)N[C@@H](CCCNC(=N)N)C(=O)N[C@@H](CCC(N)=O)C(=O)N[C@@H](CCCCN)C(=O)N[C@@H](CCCCN)C(=O)N[C@@H](CCC(N)=O)C(=O)N[C@@H](CCCNC(=N)N)C(=O)N[C@@H](CCC(=O)O)C(=O)N[C@@H](CCCCN)C(=O)N[C@@H](C)C(=O)N[C@@H](CCCCN)C(=O)N[C@H](C(=O)N[C@@H](CC(N)=O)C(=O)N[C@H](C(=O)N[C@@H](CCC(N)=O)C(=O)N[C@H](C(=O)N[C@@H](CC(C)C)C(=O)N[C@@H](C)C(=O)N[C@@H](CCC(N)=O)C(=O)N[C@H](C(N)=O)C(C)C)[C@@H](C)CC)C(C)C)[C@@H](C)O)[C@@H](C)CC)[C@@H](C)CC)C(C)C)C(C)C
B2: SEQ ID NO: 91 (peptide)
peptide: IVLSLDVPIKLK([AEEA-AEEA-γGlu-C18 diacid])QKLLKQERQKKQREKAKTN[Aib]QILAQV-NH2
modifications: N-terminus assumed
SMILES: CC[C@H](C)[C@H](N)C(=O)N[C@H](C(=O)N[C@@H](CC(C)C)C(=O)N[C@@H](CO)C(=O)N[C@@H](CC(C)C)C(=O)N[C@@H](CC(=O)O)C(=O)N[C@H](C(=O)N1CCC[C@H]1C(=O)N[C@H](C(=O)N[C@@H](CCCCN)C(=O)N[C@@H](CC(C)C)C(=O)N[C@@H](CCCCNC(=O)COCCOCCNC(=O)COCCOCCNC(=O)CC[C@H](NC(=O)CCCCCCCCCCCCCCCCC(=O)O)C(=O)O)C(=O)N[C@@H](CCC(N)=O)C(=O)N[C@@H](CCCCN)C(=O)N[C@@H](CC(C)C)C(=O)N[C@@H](CC(C)C)C(=O)N[C@@H](CCCCN)C(=O)N[C@@H](CCC(N)=O)C(=O)N[C@@H](CCC(=O)O)C(=O)N[C@@H](CCCNC(=N)N)C(=O)N[C@@H](CCC(N)=O)C(=O)N[C@@H](CCCCN)C(=O)N[C@@H](CCCCN)C(=O)N[C@@H](CCC(N)=O)C(=O)N[C@@H](CCCNC(=N)N)C(=O)N[C@@H](CCC(=O)O)C(=O)N[C@@H](CCCCN)C(=O)N[C@@H](C)C(=O)N[C@@H](CCCCN)C(=O)N[C@H](C(=O)N[C@@H](CC(N)=O)C(=O)NC(C)(C)C(=O)N[C@@H](CCC(N)=O)C(=O)N[C@H](C(=O)N[C@@H](CC(C)C)C(=O)N[C@@H](C)C(=O)N[C@@H](CCC(N)=O)C(=O)N[C@H](C(N)=O)C(C)C)[C@@H](C)CC)[C@@H](C)O)[C@@H](C)CC)C(C)C)C(C)C

Target: human corticotropin-releasing factor 2α (CRF2 α receptor) (human), Q13324
Experiment: cell-based or functional assay

human corticotropin-releasing factor 2α (CRF2 α receptor) (human), Q13324, sequence (Q13324 20-411): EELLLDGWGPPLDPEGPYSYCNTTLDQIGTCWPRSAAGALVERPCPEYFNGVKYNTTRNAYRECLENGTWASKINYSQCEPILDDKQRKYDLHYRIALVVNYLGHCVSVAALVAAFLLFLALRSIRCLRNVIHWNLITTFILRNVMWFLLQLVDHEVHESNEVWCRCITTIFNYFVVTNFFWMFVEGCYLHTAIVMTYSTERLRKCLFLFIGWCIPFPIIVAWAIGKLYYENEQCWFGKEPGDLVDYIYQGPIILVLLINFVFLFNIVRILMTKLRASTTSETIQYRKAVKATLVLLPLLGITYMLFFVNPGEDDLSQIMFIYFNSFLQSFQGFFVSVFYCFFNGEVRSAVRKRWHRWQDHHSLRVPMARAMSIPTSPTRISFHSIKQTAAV

Binder | EC50 [nM], 0% HSA [nM] | EC50 [nM], 0.1% HSA [nM]
B1 | 3.91 | 92.6
B2 | 14.3 | –
